Laboratory results: patent publication US20230192808A1 (REGENTS OF THE UNIVERSITY OF COLORADO A BODY CORPORATE, published 2023)
Where no end group is shown, it is not given here. The star is where a group is joined. Biotin = O=C1N[C@H]2[C@H](CS[C@H]2CCCCC(=O)*)N1; PEGS = not defined here

Columns and labels:
HLA-DRB1*15:01 = target: T1, HLA-DRB1*15:01 (human, UniProt P01903 26-216; P01911 30-227, limits assumed); assay: flow cytometry, biotinylated peptide on HLA-expressing T2 cells, streptavidin-PE
T1 construct: whole, on cells; HLA class II molecule expressed on class II negative T2 cells that carry DRA1*01:01

HLA-DRB1*04:01 = target: T2, HLA-DRB1*04:01 (human, UniProt P01903 26-216; P01911 30-227, limits assumed); assay: as above
T2 construct: whole, on cells; on T2 cells; also called DR4
T2 MHC II alpha: not shown
T2 MHC II beta: not shown

[1] = target: T3, HLA-DQ2 A57D (DQA1*05:01/DQB1*02:01 A57D) (human, UniProt P01909 24-254; P01920 33-261); assay: flow cytometry, biotinylated peptide titrated on HLA-expressing T2 cells, streptavidin-PE
T3 construct: A57D variant of the DQB1 chain, cloned into T2 cells
T3 alpha: not shown
T3 beta: not shown

[2] = target: T4, HLA-DQ2 (DQA1*05:01/DQB1*02:01) (human, UniProt P01909 24-216, limits assumed); assay: as above
T4 construct: whole, on cells; on T2 cells

[3] = target: T5, HLA-DQ2 trans (DQA1*03:01/DQB1*02:01) (human, UniProt P01909 24-216, limits assumed); assay: as above
T5 construct: whole, on cells; on T2 cells
T5 MHC II alpha: not shown
T5 MHC II beta: not shown

HLA-DRB1*04:01 G86L = target: T6, HLA-DRB1*04:01 G86L (human); assay: flow cytometry, biotinylated peptide on HLA-expressing T2 cells, streptavidin-PE
T6 construct: pocket 1 variant on T2 cells

[4] = target: T7, HLA-DQ8 (DQA1*03:01/DQB1*03:02) (human, UniProt P01909 24-216; P01920 33-230, limits assumed); assay: flow cytometry, biotinylated peptide titrated on HLA-expressing T2 cells, streptavidin-PE
T7 construct: whole, on cells; on T2 cells
T7 MHC II alpha: not shown
T7 MHC II beta: not shown

HLA-DRB1*15:01 A71R = target: T8, HLA-DRB1*15:01 A71R (human); assay: flow cytometry, biotinylated peptide on HLA-expressing T2 cells, streptavidin-PE
T8 construct: engineered allele on T2 cells

HLA-DRB1*15:01 F47Y = target: T9, HLA-DRB1*15:01 F47Y (human); assay: as above
T9 construct: engineered allele on T2 cells

HLA-DRB1*15:01 V86G = target: T10, HLA-DRB1*15:01 V86G (human); assay: as above
T10 construct: engineered allele on T2 cells

HLA-DRB1*07:01 = target: T11, HLA-DRB1*07:01 (human); assay: as above
T11 construct: whole, on cells; on T2 cells by the general method; the making of this line is not described on its own; also called resistant allele (NMO)

**Q.** Does LVRYWISAFP (also: biotinylated, site not given here, also called RASDRP2) [RASGRP2 78-87 peptide] bind (HLA-DRB1*15:01)?
**A.** binds

**Q.** Does LVRYWISAFP (also: biotinylated, site not given here, also called RASDRP2) [RASGRP2 78-87 peptide] bind (HLA-DRB1*04:01)?
**A.** binds

**Q.** Does {Biotin-PEGS}-GQVELGGGSSPETLI (reading uncertain, also called HIP9; HIP9-NPY) [Hybrid Insulin Peptide HIP8-NPY] bind [1]?
**A.** binds

**Q.** Does {Biotin-PEGS}-GQVELGGGSSPETLI (reading uncertain, also called HIP9; HIP9-NPY) [Hybrid Insulin Peptide HIP8-NPY] bind [2]?
**A.** no binding

**Q.** Does {Biotin-PEGS}-GQVELGGGSSPETLI (reading uncertain, also called HIP9; HIP9-NPY) [Hybrid Insulin Peptide HIP8-NPY] bind [3]?
**A.** binds

**Q.** Does {Biotin-PEGS}-GQVELGGGSSPETLI (reading uncertain, also called HIP9; HIP9-NPY) [Hybrid Insulin Peptide HIP8-NPY] bind (HLA-DRB1*04:01 G86L)?
**A.** no binding (tested: 100 uM)

**Q.** Does {Biotin-PEGS}-GQVELGGGSSPETLI (reading uncertain, also called HIP9; HIP9-NPY) [Hybrid Insulin Peptide HIP8-NPY] bind (HLA-DRB1*04:01)?
**A.** no binding (tested: 100 uM)

**Q.** What does the source list for {Biotin-PEGS}-SLQPLALEAEDLQV (reading uncertain) [Hybrid Insulin Peptide HIP11-C peptide]?
**A.** binding result [1]: binds; binding result [4]: no binding; binding result [3]: binds; binding result (HLA-DRB1*04:01 G86L): no binding (tested: 100 uM); binding result (HLA-DRB1*04:01): no binding (tested: 100 uM)

**Q.** Does ENPVVHFFKNIVTPRTPPP (also: biotinylated, site not given here) [MBP^83-101 peptide] bind (HLA-DRB1*15:01)?
**A.** binds

**Q.** Does ENPVVHFFKNIVTPRTPPP (also: biotinylated, site not given here) [MBP^83-101 peptide] bind (HLA-DRB1*04:01 G86L)?
**A.** binds

**Q.** Which results are given for HLVEELYLVAGEEG (also: biotinylated, site not given here) [Insulin Mimotope peptide]?
**A.** binding result [1]: binds; binding result [4]: binds; binding result [2]: no binding; binding result [3]: binds; binding result (HLA-DRB1*04:01): binds

**Q.** Does AQGTLSKIFKLGGRDSRSGSPMARR (also: biotinylated, site not given here) [MBP^146-170 peptide] bind (HLA-DRB1*15:01)?
**A.** no binding (tested: 100 µM (general method))

**Q.** Does AQGTLSKIFKLGGRDSRSGSPMARR (also: biotinylated, site not given here) [MBP^146-170 peptide] bind (HLA-DRB1*15:01 A71R)?
**A.** binds

**Q.** Does AQGTLSKIFKLGGRDSRSGSPMARR (also: biotinylated, site not given here) [MBP^146-170 peptide] bind (HLA-DRB1*15:01 F47Y)?
**A.** binds

**Q.** Does AQGTLSKIFKLGGRDSRSGSPMARR (also: biotinylated, site not given here) [MBP^146-170 peptide] bind (HLA-DRB1*04:01 G86L)?
**A.** binds

**Q.** Does AQGTLSKIFKLGGRDSRSGSPMARR (also: biotinylated, site not given here) [MBP^146-170 peptide] bind (HLA-DRB1*15:01 V86G)?
**A.** binds

**Q.** Does FFRDHSYQEEA (also: biotinylated, site not given here) [MOG^97-109 peptide] bind (HLA-DRB1*04:01 G86L)?
**A.** no binding (tested: 100 uM)

**Q.** Does AMMIARFKMFPEVKEKG (also: biotinylated, site not given here) [GAD65^265-281 peptide] bind (HLA-DRB1*04:01 G86L)?
**A.** no binding (tested: 100 uM)

**Q.** Which results are given for {Biotin-PEGS}-GQVELGGWSKMDQLA (reading uncertain) [Hybrid Insulin Peptide HIP1-WE14]?
**A.** binding result (HLA-DRB1*04:01 G86L): no binding (tested: 100 uM); binding result (HLA-DRB1*04:01): no binding (tested: 100 uM)

**Q.** Does {Biotin-PEGS}-GQVELGGGNAVEVLK (reading uncertain) [Hybrid Insulin Peptide HIP6-IAPP2] bind (HLA-DRB1*04:01 G86L)?
**A.** no binding (tested: 100 uM)

**Q.** Does {Biotin-PEGS}-GQVELGGGNAVEVLK (reading uncertain) [Hybrid Insulin Peptide HIP6-IAPP2] bind (HLA-DRB1*04:01)?
**A.** no binding (tested: 100 uM)

**Q.** Does RSQVETDDLILKPGV (peptide, UniProt P55087 284-298, looked up, also: biotinylated, site not given here, also called aquaporin 4 peptide 5) [AQP4-5 peptide] bind (HLA-DRB1*07:01)?
**A.** no binding (tested: 100 µM (general method))

**Q.** Does SQVETDDLILKPGVV (peptide, UniProt P55087 285-299, looked up, also: biotinylated, site not given here, also called aquaporin 4 peptide 6) [AQP4-6 peptide] bind (HLA-DRB1*07:01)?
**A.** no binding (tested: 100 µM (general method))
